The values that follow come from patent publication US6866851 (WASHINGTON UNIVERSITY, dated 2005).

A value given as a limit tells only on which side of the number the result lay.

In this assay the target is GFRα2-RET receptor complex (cells transfected with GFRα2 and expressing RET). In words: cell-based or functional assay.

B1: PGP-F2ac (His-Flag-PGP-F2ac, from mouse persephin and rat GDNF) (ligand)
chain: ALAHHHHHHDYKDDDDKGSCRLWSLTLPVAELGLGYASEEKVIFRYCAGSCPQEARTQHSLVLARLRGRGRAHGRPCCQPTAFDDDVTFLDDQHHYHILRKHSAAACGC
With B1, the “GFRα2-RET reporter activation relative to GDNF” value is < 30 % of GDNF.
